Laboratory results as given in patent publication US20240010701A1.

Experiments:
FcγIIIaV158F (human) [1] = target: FcγIIIaV158F (human) (UniProt P08637); experiment: SPR (Biacore 8K), 25° C, antibody captured on nectin-4-coated chip, receptor ECD as analyte, steady-state analysis
hFcγIIIa (human) [2] = target: hFcγIIIa (human) (UniProt P08637); experiment: as above
FcγIIIaV158F (human) [3] = target: FcγIIIaV158F (human) (UniProt P08637); experiment: SPR (Biacore 8K), 25° C, ADC captured on nectin-4-coated chip, receptor ECD as analyte, steady-state analysis
hFcγIIIa (human) [4] = target: hFcγIIIa (human) (UniProt P08637); experiment: as above

Kd (FcγIIIaV158F (human) [1]) [nM]	Kd (hFcγIIIa (human) [2]) [nM]	Kd (FcγIIIaV158F (human) [3]) [nM]	Kd (hFcγIIIa (human) [4]) [nM]	Substance
983	316	–	–	DRUG B (enfortumab similar antibody that specifically binds human nectin-4)
–	–	1200	429	DRUG C (enfortumab vedotin similar antibody-drug conjugate)
